From IntAct's records for PubMed 35512704

B1: Speckle-type POZ protein (Homo sapiens), O43791 (parent)
chain: MSRVPSPPPPAEMSSGPVAESWCYTQIKVVKFSYMWTINNFSFCREEMGEVIKSSTFSSGANDKLKWCLRVNPKGLDEESKDYLSLYLLLVSCPKSEVRAKFKFSILNAKGEETKAMESQRAYRFVQGKDWGFKKFIRRDFLLDEANGLLPDDKLTLFCEVSVVQDSVNISGQNTMNMVKVPECRLADELGGLWENSRFTDCCLCVAGQEFQAHKAILAARSPVFSAMFEHEMEESKKNRVEINDVEPEVFKEMMCFIYTGKAPNLDKMADDLLAAADKYALERLKVMCEDALCSNLSVENAAEILILADLHSADQLKTQAVDFINYHASDVLETSGWKSMVVSHPHLVAEAYRSLASAQCPFLGPPRKRLKQS

Variants of: B1
Conditions: with sox2_human SOX2, P48431

effect of a mutation on the interaction | Variant
with no effect | F133V

Variants of: B1
Conditions: with src_human SRC

effect of a mutation on the interaction | Variant
with no effect | F133V

Variants of: B1
Conditions: with whr1_human WHR1, P49842
Chain of whr1_human WHR1, P49842 (P49842 whole entry): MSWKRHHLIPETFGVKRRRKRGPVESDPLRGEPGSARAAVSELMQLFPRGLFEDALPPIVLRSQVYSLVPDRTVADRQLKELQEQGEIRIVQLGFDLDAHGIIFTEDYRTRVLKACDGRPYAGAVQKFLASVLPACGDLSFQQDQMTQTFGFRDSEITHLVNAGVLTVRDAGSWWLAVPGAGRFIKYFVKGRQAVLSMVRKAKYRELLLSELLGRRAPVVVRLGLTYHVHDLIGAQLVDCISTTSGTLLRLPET

effect of a mutation on the interaction | Variant
with no effect | F133V

Variants of: B1
Conditions: with stk38_human STK38, Q15208

effect of a mutation on the interaction | Variant
with no effect | F133V

Variants of: B1
Conditions: with eloc_human ELOC

effect of a mutation on the interaction | Variant
with no effect | F133V

Variants of: B1
Conditions: with tfe2_human TCF3, P15923
Chain of tfe2_human TCF3, P15923 (P15923 whole entry): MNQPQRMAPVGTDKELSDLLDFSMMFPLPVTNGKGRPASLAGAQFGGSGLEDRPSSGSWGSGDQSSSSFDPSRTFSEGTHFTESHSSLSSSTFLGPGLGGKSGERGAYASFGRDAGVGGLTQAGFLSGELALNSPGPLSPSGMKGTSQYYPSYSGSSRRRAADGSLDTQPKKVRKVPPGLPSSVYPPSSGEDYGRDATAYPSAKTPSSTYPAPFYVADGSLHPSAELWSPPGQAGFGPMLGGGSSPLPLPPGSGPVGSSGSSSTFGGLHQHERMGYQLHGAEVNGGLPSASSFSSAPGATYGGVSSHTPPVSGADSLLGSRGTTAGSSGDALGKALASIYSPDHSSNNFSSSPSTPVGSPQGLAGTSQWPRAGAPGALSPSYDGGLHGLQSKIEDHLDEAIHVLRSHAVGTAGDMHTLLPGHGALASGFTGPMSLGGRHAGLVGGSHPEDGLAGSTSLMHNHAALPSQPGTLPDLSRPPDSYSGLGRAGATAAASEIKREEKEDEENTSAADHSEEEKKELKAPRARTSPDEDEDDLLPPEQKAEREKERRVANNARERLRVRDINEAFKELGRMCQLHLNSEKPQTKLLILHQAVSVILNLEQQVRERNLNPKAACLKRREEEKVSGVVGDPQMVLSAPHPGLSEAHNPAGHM

effect of a mutation on the interaction | Variant
with no effect | F133V

Variants of: B1
Conditions: with tead1_human TEAD1, P28347

effect of a mutation on the interaction | Variant
with no effect | F133V

Variants of: B1
Conditions: with tead3_human TEAD3, Q99594
Chain of tead3_human TEAD3, Q99594 (Q99594 whole entry): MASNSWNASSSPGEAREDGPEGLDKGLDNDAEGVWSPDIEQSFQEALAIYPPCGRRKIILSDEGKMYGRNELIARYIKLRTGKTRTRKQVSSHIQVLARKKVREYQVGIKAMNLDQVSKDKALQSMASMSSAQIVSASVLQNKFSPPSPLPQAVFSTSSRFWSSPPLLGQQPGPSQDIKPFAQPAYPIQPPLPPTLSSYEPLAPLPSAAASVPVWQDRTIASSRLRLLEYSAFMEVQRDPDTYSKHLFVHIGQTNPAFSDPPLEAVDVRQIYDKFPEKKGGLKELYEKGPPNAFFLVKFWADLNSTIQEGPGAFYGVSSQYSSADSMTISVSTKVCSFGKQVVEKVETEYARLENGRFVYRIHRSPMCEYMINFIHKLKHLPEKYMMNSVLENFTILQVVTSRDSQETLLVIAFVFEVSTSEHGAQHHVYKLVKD

effect of a mutation on the interaction | Variant
with no effect | F133V

Variants of: B1
Conditions: with tead4_human TEAD4, Q15561

effect of a mutation on the interaction | Variant
with no effect | F133V

Variants of: B1
Conditions: with tgfr2_human TGFBR2, P37173
Chain of tgfr2_human TGFBR2, P37173 (P37173 whole entry): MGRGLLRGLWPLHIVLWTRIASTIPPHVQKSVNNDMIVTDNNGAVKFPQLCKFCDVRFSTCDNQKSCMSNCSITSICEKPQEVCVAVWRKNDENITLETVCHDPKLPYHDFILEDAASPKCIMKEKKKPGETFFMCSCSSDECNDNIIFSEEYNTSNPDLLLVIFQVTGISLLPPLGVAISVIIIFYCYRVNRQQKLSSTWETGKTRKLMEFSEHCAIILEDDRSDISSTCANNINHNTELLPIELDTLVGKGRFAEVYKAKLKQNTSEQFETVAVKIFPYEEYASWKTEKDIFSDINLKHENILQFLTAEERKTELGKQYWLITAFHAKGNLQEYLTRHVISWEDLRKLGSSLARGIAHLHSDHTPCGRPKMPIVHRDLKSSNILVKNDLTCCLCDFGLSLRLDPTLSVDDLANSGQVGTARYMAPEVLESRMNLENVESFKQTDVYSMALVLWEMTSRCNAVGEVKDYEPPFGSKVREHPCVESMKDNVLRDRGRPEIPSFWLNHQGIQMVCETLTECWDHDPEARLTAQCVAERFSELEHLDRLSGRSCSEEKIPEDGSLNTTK

effect of a mutation on the interaction | Variant
with no effect | F133V

Variants of: B1
Conditions: with tnr14_human TNFRSF14, Q92956
Chain of tnr14_human TNFRSF14, Q92956 (Q92956 whole entry): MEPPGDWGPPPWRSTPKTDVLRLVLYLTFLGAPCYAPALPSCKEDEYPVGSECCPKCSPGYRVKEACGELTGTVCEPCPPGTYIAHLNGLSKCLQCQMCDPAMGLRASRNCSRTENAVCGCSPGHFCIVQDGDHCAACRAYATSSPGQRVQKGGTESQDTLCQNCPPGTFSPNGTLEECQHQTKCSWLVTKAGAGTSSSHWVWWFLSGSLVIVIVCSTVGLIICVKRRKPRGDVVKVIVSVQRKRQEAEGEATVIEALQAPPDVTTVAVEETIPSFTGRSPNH

effect of a mutation on the interaction | Variant
with no effect | F133V

Variants of: B1
Conditions: with tpx2_human TPX2, Q9ULW0
Chain of tpx2_human TPX2, Q9ULW0 (Q9ULW0 whole entry): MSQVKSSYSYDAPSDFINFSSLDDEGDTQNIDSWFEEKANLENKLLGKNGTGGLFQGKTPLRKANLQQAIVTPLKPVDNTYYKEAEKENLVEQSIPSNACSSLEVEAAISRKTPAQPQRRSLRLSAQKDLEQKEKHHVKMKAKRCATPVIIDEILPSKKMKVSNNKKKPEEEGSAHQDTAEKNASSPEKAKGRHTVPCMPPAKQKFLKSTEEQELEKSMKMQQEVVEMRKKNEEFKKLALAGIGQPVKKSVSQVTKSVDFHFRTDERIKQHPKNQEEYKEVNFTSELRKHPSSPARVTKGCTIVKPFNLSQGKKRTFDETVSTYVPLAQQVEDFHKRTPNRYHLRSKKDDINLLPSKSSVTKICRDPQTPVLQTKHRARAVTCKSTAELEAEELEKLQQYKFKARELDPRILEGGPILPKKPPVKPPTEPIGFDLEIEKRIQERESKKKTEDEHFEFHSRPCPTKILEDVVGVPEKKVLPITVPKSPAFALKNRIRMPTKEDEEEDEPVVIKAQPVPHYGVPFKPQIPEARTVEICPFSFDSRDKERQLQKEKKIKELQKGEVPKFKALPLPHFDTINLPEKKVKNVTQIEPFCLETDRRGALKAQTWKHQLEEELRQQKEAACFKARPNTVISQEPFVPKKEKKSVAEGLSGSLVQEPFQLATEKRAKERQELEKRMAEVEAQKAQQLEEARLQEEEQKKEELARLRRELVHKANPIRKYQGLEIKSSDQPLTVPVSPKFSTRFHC

effect of a mutation on the interaction | Variant
with no effect | F133V

Variants of: B1
Conditions: with tsc2_human TSC2, P49815

effect of a mutation on the interaction | Variant
with no effect | F133V

Variants of: B1
Conditions: with tshr_human TSHR

effect of a mutation on the interaction | Variant
with no effect | F133V

Variants of: B1
Conditions: with vegfa_human VEGFA

effect of a mutation on the interaction | Variant
with no effect | F133V

Variants of: B1
Conditions: with vhl_human VHL

effect of a mutation on the interaction | Variant
with no effect | F133V

Variants of: B1
Conditions: with wee1_human WEE1, P30291

effect of a mutation on the interaction | Variant
with no effect | F133V

Variants of: B1
Conditions: with wwtr1_human WWTR1, Q9GZV5
Chain of wwtr1_human WWTR1, Q9GZV5 (Q9GZV5 whole entry): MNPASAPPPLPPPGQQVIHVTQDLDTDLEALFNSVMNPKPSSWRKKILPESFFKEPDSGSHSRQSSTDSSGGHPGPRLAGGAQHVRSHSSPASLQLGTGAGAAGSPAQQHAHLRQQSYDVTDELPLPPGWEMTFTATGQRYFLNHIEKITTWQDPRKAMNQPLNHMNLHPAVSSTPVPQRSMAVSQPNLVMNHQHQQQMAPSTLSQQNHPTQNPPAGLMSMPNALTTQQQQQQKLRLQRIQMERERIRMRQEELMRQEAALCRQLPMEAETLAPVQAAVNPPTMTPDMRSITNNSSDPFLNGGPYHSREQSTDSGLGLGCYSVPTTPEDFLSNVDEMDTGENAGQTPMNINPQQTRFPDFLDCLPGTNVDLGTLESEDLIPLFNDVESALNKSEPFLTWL

effect of a mutation on the interaction | Variant
with no effect | F133V

Variants of: B1
Conditions: with xpo1_human XPO1, O14980

effect of a mutation on the interaction | Variant
with no effect | F133V

Variants of: B1
Conditions: with cblb_human CBLB

effect of a mutation on the interaction | Variant
causing an interaction | F133V

Variants of: B1
Conditions: with jun_human JUN

effect of a mutation on the interaction | Variant
causing an interaction | F133V

Variants of: B1
Conditions: with kdm6a_human KDM6A

effect of a mutation on the interaction | Variant
causing an interaction | F133V

Variants of: B1
Conditions: with pax5_human PAX5, Q02548
Chain of pax5_human PAX5, Q02548 (Q02548 whole entry): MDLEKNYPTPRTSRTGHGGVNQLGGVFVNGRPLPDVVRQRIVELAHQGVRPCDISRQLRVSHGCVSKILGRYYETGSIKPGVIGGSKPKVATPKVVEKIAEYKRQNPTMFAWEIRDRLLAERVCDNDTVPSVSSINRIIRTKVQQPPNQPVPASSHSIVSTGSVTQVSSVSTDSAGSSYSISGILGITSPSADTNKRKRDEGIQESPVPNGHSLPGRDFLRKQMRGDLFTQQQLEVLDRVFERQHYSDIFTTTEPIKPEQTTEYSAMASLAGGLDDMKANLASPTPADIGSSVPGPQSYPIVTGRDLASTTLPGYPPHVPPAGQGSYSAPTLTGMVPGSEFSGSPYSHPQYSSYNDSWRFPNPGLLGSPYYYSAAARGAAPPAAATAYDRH

effect of a mutation on the interaction | Variant
causing an interaction | F133V

Variants of: B1
Conditions: with PIK3C2B

effect of a mutation on the interaction | Variant
causing an interaction | F133V

Variants of: B1
Conditions: with e2f5_human E2F5, Q15329

effect of a mutation on the interaction | Variant
causing an interaction | F133V

Variants of: B1
Conditions: with cul3_human CUL3, Q13618
Chain of cul3_human CUL3, Q13618 (Q13618 whole entry): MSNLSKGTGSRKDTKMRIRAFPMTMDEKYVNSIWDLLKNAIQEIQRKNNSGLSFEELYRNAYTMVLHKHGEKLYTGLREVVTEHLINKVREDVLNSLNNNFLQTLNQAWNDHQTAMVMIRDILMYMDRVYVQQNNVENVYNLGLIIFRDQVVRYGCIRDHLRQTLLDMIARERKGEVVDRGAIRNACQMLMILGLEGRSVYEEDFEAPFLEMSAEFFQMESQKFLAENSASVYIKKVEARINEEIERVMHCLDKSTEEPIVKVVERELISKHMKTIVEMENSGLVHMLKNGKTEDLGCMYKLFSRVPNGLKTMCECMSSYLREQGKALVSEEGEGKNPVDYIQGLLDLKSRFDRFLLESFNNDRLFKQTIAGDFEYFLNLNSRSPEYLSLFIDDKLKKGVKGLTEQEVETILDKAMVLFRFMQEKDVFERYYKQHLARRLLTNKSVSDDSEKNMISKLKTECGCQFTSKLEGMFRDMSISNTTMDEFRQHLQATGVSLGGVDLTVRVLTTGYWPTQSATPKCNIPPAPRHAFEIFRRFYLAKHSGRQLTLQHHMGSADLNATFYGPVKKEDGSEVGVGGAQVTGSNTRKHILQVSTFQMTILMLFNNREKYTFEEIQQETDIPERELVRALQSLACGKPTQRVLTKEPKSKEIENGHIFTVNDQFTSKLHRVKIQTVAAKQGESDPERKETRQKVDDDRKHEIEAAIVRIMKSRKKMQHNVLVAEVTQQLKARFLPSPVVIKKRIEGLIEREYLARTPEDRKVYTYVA

effect of a mutation on the interaction | Variant
increasing interaction strength | F133V

Variants of: B1
Conditions: with etv1_human ETV1, P50549
Chain of etv1_human ETV1, P50549 (P50549 whole entry): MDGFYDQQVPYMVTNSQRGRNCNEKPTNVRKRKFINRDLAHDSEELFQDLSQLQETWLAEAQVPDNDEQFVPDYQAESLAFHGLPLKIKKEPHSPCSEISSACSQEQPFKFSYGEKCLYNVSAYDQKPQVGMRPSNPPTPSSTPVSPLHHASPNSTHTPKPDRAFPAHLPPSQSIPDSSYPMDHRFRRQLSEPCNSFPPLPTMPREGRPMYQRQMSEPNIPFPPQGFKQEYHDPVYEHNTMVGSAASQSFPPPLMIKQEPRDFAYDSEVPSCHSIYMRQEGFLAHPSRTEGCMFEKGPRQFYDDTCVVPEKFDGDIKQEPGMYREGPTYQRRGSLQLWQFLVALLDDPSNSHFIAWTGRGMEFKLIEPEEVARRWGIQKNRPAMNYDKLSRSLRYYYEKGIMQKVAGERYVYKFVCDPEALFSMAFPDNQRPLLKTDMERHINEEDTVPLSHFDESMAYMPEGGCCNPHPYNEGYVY

effect of a mutation on the interaction | Variant
decreasing interaction strength | F133V
